Measured values reported in paper PMC3695725.
Like-named read-outs stand apart in the source and are kept apart here.

Legend:
Assay in all cases: SPR
[1] = target: recombinant full length GST-TIMAP (wt), non-phosphorylated
[2] = target: mono-thiophosphorylated GST-TIMAP (wt)
[3] = target: recombinant full length GST-TIMAP (wt), non-phosphorylated; remark: listed apart in the source
[4] = target: double-thiophosphorylated GST-TIMAP (wt)

Ka [1]: 1.8e+06 M⁻¹
Ka [2]: 7.39e+06 M⁻¹
koff [2]: 0.000556 s⁻¹
kon [2]: 4110 M⁻¹ s⁻¹
Ka [3]: 1.28e+06 M⁻¹
koff [3]: 0.00366 s⁻¹
kon [3]: 4680 M⁻¹ s⁻¹
Ka [4]: 1.93e+06 M⁻¹
koff [4]: 0.000522 s⁻¹
kon [4]: 1010 M⁻¹ s⁻¹
Substance: recombinant PP1cβ (catalytic subunit of protein phosphatase 1, β isoform) (from UniProt P62140 1-327) (enzyme)
